Measured values reported in paper PMC10269845, “Hijacking of Host Plasminogen by Mesomycoplasma (Mycoplasma) hyopneumoniae via GAPDH: an Important Virulence Mechanism To Promote Adhesion and Extracellular Matrix Degradation” (Microbiology Spectrum, 2023).

Molecular target: plasminogen (UniProt P00747 20-810)
Test: SPR
Details: both partners purified

plasminogen, sequence (P00747 20-810): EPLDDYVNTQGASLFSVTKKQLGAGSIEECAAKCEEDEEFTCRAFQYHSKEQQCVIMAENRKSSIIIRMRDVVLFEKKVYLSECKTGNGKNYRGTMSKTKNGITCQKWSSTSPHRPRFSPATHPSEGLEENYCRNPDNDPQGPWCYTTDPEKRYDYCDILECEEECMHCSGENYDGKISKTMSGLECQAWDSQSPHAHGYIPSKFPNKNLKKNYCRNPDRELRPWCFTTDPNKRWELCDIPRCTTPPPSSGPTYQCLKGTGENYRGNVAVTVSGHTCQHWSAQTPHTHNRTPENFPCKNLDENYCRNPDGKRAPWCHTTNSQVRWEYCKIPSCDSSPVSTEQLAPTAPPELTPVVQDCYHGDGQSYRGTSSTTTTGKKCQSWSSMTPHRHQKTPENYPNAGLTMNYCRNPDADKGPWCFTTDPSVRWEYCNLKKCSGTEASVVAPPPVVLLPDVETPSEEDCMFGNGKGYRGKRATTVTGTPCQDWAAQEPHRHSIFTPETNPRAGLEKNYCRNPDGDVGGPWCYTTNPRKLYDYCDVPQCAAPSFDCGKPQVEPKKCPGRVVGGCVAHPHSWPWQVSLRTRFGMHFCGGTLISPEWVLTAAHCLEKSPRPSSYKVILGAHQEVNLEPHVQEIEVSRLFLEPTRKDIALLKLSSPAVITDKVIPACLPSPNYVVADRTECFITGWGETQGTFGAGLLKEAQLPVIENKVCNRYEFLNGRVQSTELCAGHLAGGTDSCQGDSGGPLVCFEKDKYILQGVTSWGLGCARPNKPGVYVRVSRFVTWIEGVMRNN

B1: Recombinant glyceraldehyde-3-phosphate dehydrogenase (GAPDH) of Mesomycoplasma (Mycoplasma) hyopneumoniae strain 168 (enzyme)
chain: MKKIAINGFGRIGRLALRRLFEVNDENLQVVAINDLTDASVLAHLFKYDSAHGKFNGEVEVLKDNGKNYLKIKGQKILVLSERDPKSLPWGQLGIDLVVECTGFFASKSGASQHLEAGAKKVIISAPAGNDVKTIVYNVNCDTITEDDRILSSASCTTNALAPLVNALDKEFGINHGFMTTIHAYTADQRLQDAPHGDLRRARAAGVNLVPSSTGAAKAIGLVVPSLTGKLDGIAIRVPVITGSFVDLSVELKSNPSIEEINQKMREYANESFAYCDEPIVSSDIIGDRHGSIFDATLTKYIEANGKRLYKLYTWYDNEYSFVSQFVRVIRDFVQK
notes: also called rGAPDH; source: E. coli BL21(DE3), pET-32a, purified (Ni resin FF)
- Kd: 376 nM
